From paper doi:10.1101/2024.05.01.590489 (bioRxiv, 2024)

Biological target: AAV9 capsid (adeno-associated virus serotype 9 (AAV9), UniProt Q6JC40)
Test: cryo-EM structure

| Binder | binding result | stoichiometry N [Fabs per capsid] |
| --- | --- | --- |
| Fab2-5 (Fab, V domains shown) VH: EVQLVESGGGLVKPGGSPRLSCAASGFNFGSYSMNWVRQAPGKGLEWVSSISSSSSYIYYADSVKGRFTISRDNAKHSLYLQVNSLRAEDTAVYYCARDPTTYGYNSAWDKKGWYFDLWGRGTLLTVS VL: VLTQPPSVSAAPGQMVTISCSGSSSNIGNDYISWYQQLPGTAPKLLIYDNNERPSGIPDRFSGSKSGTSATLGITGVQTGDEADYYCGTWDSSLSAWVFGEGTKLTVV | binds |  |
| Fab3-7 (Fab, V domains shown) VH: QVQLQESGPGLVKPSETLSLTCTVSGGSISNYYWNWIRQPPGKGLEWIGYVHYSGSTNYNPSLKSRVSVSVDTSKNQFSLNLGSVTAADTAVYYCARQSRSYYNEVITDPKYNFDYWGQGTLVTVSS VL: QSALTQPASVSGSPGQSITISCTGTSSDVGGYDYVSWYQQHPGKAPKLMIYDVSNRPSGVSNRFSGSKSGNTASLTISGLQAEDEADYYCSSYTSISTLVFGGGTKLTVL | binds |  |
| Fab1-6 (Fab, V domains shown) VH: QVQLVESGAEVKQPGASVKVSCKASGYIFTSHNIHWVRKAPGQGLEWMGKINPSGGDANYAQKFQGRVVMTRDTSTNTVYVQLRSLRFEDTAVYYCARVHDFWSGYHRALDIWGQGTMVIVSS VL: VLTQPPSASGTPGQTVTISCSGSSSNVGSHSVNWYQHLPGTAPKLLIYSNHRRPSGVPDRFSGSKSDTSASLAISGIQSEDEADYYCATWDGRLNVLFGGGTKLTVL |  | ≤ 24 |
| Fab2-7 (Fab, V domains shown) VH: EVQLLESGGGLVQPGGSLRLSCAASGFTFSTYAMNWVRQAPGKGLEWVAGISASGGSAYYVDSVEGRFTISRDNSNNMLYLQMNSLRAEDTAVYYCAKAVYAITMVRGSITTNYYHYYAMDVWGQGTTVTV VL: EIVLTQSPGTLSLSPGERATLSCRASQGVSSNYLAWYQQKPGQAPRLLIYDASNRATGIPDRFSGSGSGTDFTLTISRLEPEDFAVYYCQQYGSSPPLTFGGGTKVQI |  | ≤ 60 |
| Fab2-2 (Fab, V domains shown) VH: QVQLQESGPGLVKPSVTLSLTCTVSGDSISTYYWSWVRQPPGKGLEWIGYIYYSGNTNYNPSLKSRVTMSVDTSKNQFSLKLNSVTAADTAVYYCARTHHDYGDYRPSYYFDYWGQGTLVTVSS VL: QSALTQPASVSGSPGQSITISCTGTSSDVGAYDYVSWYQQHPGKAPKLMIYDVSNRPSSGVSNRFSGSKSGNTASLTISGLQAEDEADYYCSSYTSSSTVILGGGTKLTVL | binds |  |
| Fab1-5 (Fab, V domains shown) VH: EVQLVESGGGLVKPGGSLRLSCAASGFMFSSYSMNWVRQAPGKGLEWVSSISRSDSYIDYADSVKGRFTISRDTAMNVLYLQMDSLRAEDTGVYYCARTHVFNMFREVINDDYYGMDVWGQGTTVTVS VL: ALTQPASVSGSPGQSITISCTGTSSDFGIYNSVSWYQHHPGKAPKLMIFGVSNRPSGVSNRFSGSKSGNTASLSISGLQAEDEADYYCSSFTARSTVVFGGGTKLTVL | binds |  |
| Fab3-2 (Fab, V domains shown) VH: EVQLLESGGGLVQPGGSLRLSCAASGFTFSNYAMSWVRQAPGKGLEWVSLISGSGGSIDYADSVKGRFTISRDNSKNTLYLQMDSLRAEDTAVYYCSKDPIYYDLSGYYAGRIYYFDYWGQGTLVTVSS VL: EIVMTQSPATLSVSPGDTATLSCRASHSVSRDLAWYQQKPGQAPRLLIYDASTRATGIPARFSGSGSGTEFTLTISSLQSEDFAVYYCQQYINWVTFGPGTKVDIE | binds |  |
| Fab3-3 (Fab, V domains shown) VH: QVQLQESGPGLVKSSETLSLTCTVSGESISSSSHYWGWIRQPPGKGLEFLGNVYYLGSTYYNPSLESRVTILLDTSKNQFSLKVNSVTVADTAVYYCARHGAGSYSGLFFDYWGQGARVIVSS VL: DIQMTQSPSFVSASVGDRVNITCRASQGINSWLAWYQQKPGKAPKLLIYSASSLQSGVPSRFSGSGSGTDFTLTISTLQPEDFATYYCQQANSFPYTFGQGTKVD | binds |  |
| Fab3-1 (Fab, V domains shown) VH: EVQLLESGGGLVQPGGSLRLSCEASGFTFSRYPMNWVRQAPGKGLEWVSHISASGGTTYYADTVKGRFSISRDNSKNTLYLEMNSLRAEDTAIYFCAKDYPPDEVTMIVVGMPYFDSWGLGTLVSVSS VL: not shown | binds |  |
| Fab3-6 (Fab, V domains shown) VH: EVQLVESGGGLVQPGGSLRLSCSASGFHFSSYEMNWVRQAPGKGLEWVSYISSSGTYIDYADSVKGRFTISRDNPANSLYLQMYSLRAEDTAVYYCARRLWFGELPYSYYYGMDVWGQGTTVTVSS VL: ALTQPASVSGSPGQSITISCTGTSSDIGGYNYVSWYQQHPGKAPELLIFDVSNRPSGVSNRFSGSKSGNTASLTISGLQAEDEADYHCCSYTRTSTVIFGGGTKLTVL | binds |  |
| Fab1-4 (Fab, V domains shown) VH: QVQVVESGAEVKKPGASVKVSCKASGYAFTTYYMHWVRQAPGQGLEWMGLINPSGDSITYAQRFQGRVTMTKDTSTSTVYMELSSLRSEDTAIYYCARDPNVAFYYGSGNYYKDNAMDVWGQGTTVTVSS VL: not shown | binds |  |
| Fab3-5 (Fab, V domains shown) VH: EVQLVESGGGLVQPGGSLRLSCAASGFTFSNYGMNWVRQAPGKGLEWVSYISSGGTIYYADSVKGRFTISRDNAKNSVYLQMNSLRAEDTAVYYCARDPAYCGDDCYTIPAHYFDYWGQGTPVTVS VL: DIQMTQSPSSLSASVGDRVTITCRTSQSISRYLNWYQQKPGKAPKLLIYAASSLQSGVPSRFTGSGSGTDFTLTISSLQPEDFATYYCQQSYSIPPVTFGQGTRVD | binds |  |
| Fab1-2 (Fab, V domains shown) VH: EVQLVESGGGLVQPGGSLRLSCAASGFIFSNYWMSWVRQAPGKGPEWVANIKQDGSANHYVDSVKGRFTISRDNAKNSLYLQMNSLRAEDTAVYYCAREAYQDWNYDYWGQGTLVTVSS VL: DIQMTQSPSSLSASVGDRVTVTCRASEFISRYLNWYQQKPGKAPKVLIYAASSLQSGVPSRFSGSGSGTDFTLTISSLQPEDFATYYCQQSYSTPYTFGQGTKLEIK | binds |  |
| Fab1-1 (Fab, V domains shown) VH: EVQLVESGGGLVKPGGSLRLSCAASGVPFSDAWMNWVRQAPGKGLEWVGRIKSKKDGGTADYAAPVKGRFSISRDDSKKMLYLHMNSLKTEDTAVYYCTTEPSGYCSNGLCYTGNYWGQGTLVTVSS VL: QPVLTQSSSASASLGSSVKLTCTLSSGHITYIIAWHQQQPGKAPRYLMKLEDSGSYNKGSGVPDRFSGSSSGADRYLTISNLQFEDEADYYCETWDSYTRVFGGGTKLT | binds |  |
| Fab1-7 (Fab, V domains shown) VH: QVQLQESGPGLVKPSETLSLTCTVSGDSIRSYYWSWIRQPPGKGLEWIGHIYYSGSTNYKPSLKSRATILVDTSKNQFSLKLRSVTAADTAVYYCAREMTGVAGRGWDHWGQGTLVTVSS VL: ALTQPPSASGTPGQRVTISCSGSSSNIGSNTVNWYQQLPGTAPKLLIFINNQRPSGVPDRFSGSKSGTSASLAISGLQSEDEADYYCTTWDGSLNGYVFGTRTEVTVL | binds |  |
| Fab1-3 (Fab, V domains shown) VH: VQLVESGGGVVQPGRSLRLSCAASGFSFSSFVFHWVRQAPGKGLEWVAVISYDGSNKNYADSVKGRFTISRDNSKNTLFLQMNSLSADDTAVYYCARGAICSSTTCYLGDSYYFYGMDVWGQGTTVTVSS VL: LTQPPSVSGAPGQRVTISCTGSRSNIGAGYDVHWYQQLPGTAPKLLIYGNSNRPSGVPDRFSGSKSGTSASLAITGLQTDDEADYYCQSYDSSLSGSVFGGGTKLTVL | binds |  |
